The values that follow come from patent publication US20040132033.

What all share (experiment): EMSA
A general note: A gel shift assay detects complexes by their altered migration in electrophoresis.

One data set deals with SBS#1140 ZFP (synthetic). To be noted: 100 mM KCl, 1 mM MgCl2, 100 uM ZnCl2, pH 7.5, RT.
The test system of a further data set is SBS#1750 ZFP (synthetic). To be noted: 100 mM KCl, 1 mM MgCl2, 100 uM ZnCl2, pH 7.5, RT.
A further data set concerns SBS#1760 ZFP (synthetic). To be noted: 100 mM KCl, 1 mM MgCl2, 100 uM ZnCl2, pH 7.5, RT.
The test system of a further data set is SBS#1764 ZFP (synthetic). To be noted: 100 mM KCl, 1 mM MgCl2, 100 uM ZnCl2, pH 7.5, RT.
For the next data set, the system named is SBS#1755 ZFP (synthetic). To be noted: 100 mM KCl, 1 mM MgCl2, 100 uM ZnCl2, pH 7.5, RT.
In a further data set the test system is SBS#779 ZFP (synthetic). To be noted: 100 mM KCl, 1 mM MgCl2, 100 uM ZnCl2, pH 7.5, RT.
Another data set relates to SBS#1770 ZFP (synthetic). To be noted: target also SEQ 111; 100 mM KCl, 1 mM MgCl2, 100 uM ZnCl2, pH 7.5, RT.
The subject of the next data set is SBS#1756 ZFP (synthetic). To be noted: 100 mM KCl, 1 mM MgCl2, 100 uM ZnCl2, pH 7.5, RT.
For a further data set, the system named is SBS#781 ZFP (synthetic). To be noted: 100 mM KCl, 1 mM MgCl2, 100 uM ZnCl2, pH 7.5, RT.
The subject of a further data set is SBS#519 ZFP (synthetic). To be noted: listed twice (-343 and -329, same 9 bp, SEQ 21 and 23); 100 mM KCl, 1 mM MgCl2, 100 uM ZnCl2, pH 7.5, RT.
A further data set relates to SBS#386 ZFP (synthetic). To be noted: 100 mM KCl, 1 mM MgCl2, 100 uM ZnCl2, pH 7.5, RT.
The next data set relates to SBS#705 ZFP (synthetic). To be noted: 100 mM KCl, 1 mM MgCl2, 100 uM ZnCl2, pH 7.5, RT.
A further data set deals with SBS#713 ZFP (synthetic). To be noted: 100 mM KCl, 1 mM MgCl2, 100 uM ZnCl2, pH 7.5, RT.
The next data set concerns SBS#1757 ZFP (synthetic). To be noted: 100 mM KCl, 1 mM MgCl2, 100 uM ZnCl2, pH 7.5, RT.
The next data set relates to SBS#1772 ZFP (synthetic). To be noted: 100 mM KCl, 1 mM MgCl2, 100 uM ZnCl2, pH 7.5, RT.

As a reminder, the Kd is a measure of binding affinity in units of concentration. For “AAGGGTGCG (double strand) [SBS#1140 target (-287)]”, the Kd in the data set with SBS#1140 ZFP (synthetic) is 0.3 nM. In the case of “ATGGAGGGC (double strand) [SBS#1750 target (-147)]”, in the data set on SBS#1750 ZFP (synthetic), the Kd worked out at 0.011 nM. In the data set with SBS#1760 ZFP (synthetic), “ATGGCCGGG (double strand) [SBS#1760 target (-299)]” showed a Kd of 0.42 nM. In the data set on SBS#1764 ZFP (synthetic), “CAAGTGGGT (double strand) [SBS#1764 target (-286)]” displayed a Kd of 0.11 nM.

“CGGGAGGCC (double strand) [SBS#1755 target (-319)]” showed a Kd with SBS#1755 ZFP (synthetic) of 0.006 nM. “CGGGGAGCA (double strand) [SBS#779 target (-356)]” came in with a Kd in the data set with SBS#779 ZFP (synthetic) of 0.5 nM.

“CGGGGAGGA (double strand) [SBS#1756/1770 target (-342)]”: the Kd in the data set on SBS#1770 ZFP (synthetic) was determined as 0.01 nM; in the data set with SBS#1756 ZFP (synthetic) it was 0.125 nM. “GGGGAGCAG (double strand) [SBS#781 target (-357)]”: the Kd in the data set on SBS#781 ZFP (synthetic) worked out at 4.25 nM. In turn, “GGGGAGGAG (double strand) [SBS#519 target (-343 and -329)]” gave a Kd in the data set on SBS#519 ZFP (synthetic) of 1.12 nM.

In turn, “GGGGCGGAG (double strand) [SBS#386 target (-111)]” displayed a dissociation constant Kd in the data set on SBS#386 ZFP (synthetic) of 0.4 nM.

In the case of “GGGGCGGGG (double strand) [SBS#705 target (-201)]”, in the data set with SBS#705 ZFP (synthetic), the Kd came to 0.01 nM. Turning to “GGTGAGGAG (double strand) [SBS#713 target (-127)]”, the Kd with SBS#713 ZFP (synthetic) is 0.15 nM. In the case of “GGTGCGGAG (double strand) [SBS#1757 target (-290)]”, in the data set on SBS#1757 ZFP (synthetic), the Kd was determined as 0.05 nM.

Turning to “GTGGGTGAT (double strand) [SBS#1772 target (-277)]”, in the data set on SBS#1772 ZFP (synthetic), the Kd worked out at 0.006 nM.
